# Source: the DeepSol protein solubility set
# Experiment: soluble on expression in E. coli; label from the status in PepcDB or PDB records
row,Sequence,soluble on expression in E. coli
1,MKMIIAIVQDQDSQELADQLVKNNFRATKLATTGGFLRAGNTTFLCGVNDDRVDEILSVINQTCGNREQLVSPITPMGGSADSYIPYPVEVEVGGATVFVMPVDAFHQF,not soluble
2,MKMTVVGFWGGFPEAGEATSGYLFEHDGFRLLVDCGSGVLAQLQKYITPSDIDAVVLSHYHHDHVADIGVLQYARLITSATKGQLPELPIYGHTFDENGFHSLTHEPHTKGIPYNPEETLQIGPFSISFLKTVHPVTCFAMRITAGNDIVVYSADSSYIPEFIPFTKDADLFICECNMYAHQEAAKAGHMNSTEVASIAKDANVKELLLTHLPHTGNPADLVTEAKQIFSGHITLAHSGYVWNS,soluble
3,MKNDVISPEFDENGRPLRRIRSFVRRQGRLTKGQEHALENYWPVMGVEFSEAPVDFATLFGREAPVTLEIGFGMGASLVAMAKARPEQNFLGIEVHSPGVGACLASANEEGVENLRVMCHDAVEVLHKMIPDNSLSMVQLFFPDPWHKARHNKRRIVQVPFAELVLSKLKLGGVFHMATDWEAYAEHMLEVMSSIDGYKNLSESNDYVPRPESRPVTKFEQRGHRLGHGVWDLMFERVK,not soluble
4,MKNNAIGSNWKDVRAELFSKEEILESDMRVAIMSELIEARNEKGISQKKLEEMSGVSQPVIARMETGKTSPQLDTVLKVLASLGKTLAVVPLEHEQV,not soluble
5,MKNNQNSNIHLLRSAKHAEPVMLDIKQLVKTYDNGHQAVKGVDLSIHQGEFIVLVGPSGCGKSSILRSIAGLESITSGEIHLAGRRVDNEKPANRDIAMVFQNYALYPHMSVYDNLAYGLKNRGVDKQTIAAKIAKVAKTLKIEEYLDRKPAKLSGGQRQRVAMGRAIVRDPQLFLFDEPLSNLDAALRAHMRLEIKKLQRELGVTSVYVTHDQVEAMTLADRIVVVKQGEIEQVGTPAEVYHQPASTFVASFIGSPAMNFLPASIKQGQLHIAGKHCYLPQFDAMSSENITLGIRPEHASLHPLTNAIELKLDIQVVEPLGPNQLVHGKIIGLESEQDFIAVTAEIPLDVHQTLPIWVALEQLHLFDQQGKRFVQSHRSCTQSSKVASTRQQ,not soluble
6,MKNPGTHILPKNPECSKQKTLTKQLLLLELFEFQLDAQIQQNTFQLELTIQRRKEHLEIDSVMKIKNRNFANFGMFNSLHIIRFWNLFYNRISAADFPENSGFRMFATEILVKLENIGNVM,not soluble
7,MKNPYVQITDQEQYKKSIRRIPPKDPNIFLIERPTAGEIIALWWTTSSRGKSTDKYIPKYFKRIYRVDMIKQRKLFIKANVISEENNTYVLTELGEMLVHKYFYIIEEHNNSSNDSFNTERRKLADKILYSLGGEI,not soluble
8,MKPATYNTEAFDEWIRSRFVELNSQLEQLYYQQTDRANVQEVGTELKHTLESEGRELVKALLDEGNTDEGFDSAFDLLGNVGLYMAACRRHEITEPTRETTSPLLEASALAMHIGASIGVTPRFATAHLTTHNRAHNGIYKRFTDLPDEKLFVDYNTKGILAYKRASDALLKIQPLGISHPISHDLLRVTKQALQDVIESNQQLFNRLDTDRFFYCVRPYYKPYRVGSVVYRGANAGDFAGINVIDLTLGLCFANEASYSQMLVDKFLYMMPEDQQILRECMRRPNLMDDFLQAKGCIHQDWYQENLKLFIEVCELHGQTAIQHHNELVTKYIAEPSVSMEQQHLAKVTASGPPLHVLLASLERLRDRRAAVLRDDIRTRYYDLKKLKDSLRAAALEHHHHHH,soluble
9,MKPKSGAVRRLEKNTMNFVLSDVADAEAEKAIRDPLVAYNLARFGESDKRDLNITIRNDDNSVTGGLVGHTARGWLYVQLLFVPEAMRGQGIAPKLLAMAEEEARKRGCMGAYIDTMNPDALRTYERYGFTKIGSLGPLSSGQSITWLEKRF,soluble
10,MKPNIHPEYRTVVFHDTSVDEYFKIGSTIKTDREIELDGVTYPYVTIDVSSKSHPFYTGKLRTVASEGNVARFTQRFGRFVSTKKGA,soluble
11,MKQGTMNILFFVLKTKLLKNGEAPVLMRITINGDYDDVRIQRSVPLNLWNAAKGCSKGRDRASVALNAYIAELHARALEKHKELVLEQALITPKLILKRVFGKDTEMRTLLGTMREGIKEMETLAGIDYSPVTINRYKNVVKKLQLLIPSYYGKEDVTFHELTPEFIRAFDIYLKTEAGLCRNTIVRYMKCFKKFTNMALAKEWMRKNPFYGYKMEQDETDPVFLTYDELQTVMKKKFTIPRLELVRDVFVFACFTGLAFSDVASLNKENLVQDNLGDWWIRKGRVKLEHRRKASSISNIPLLPVPLAILEKYKEHPTCIKKGCCLPVMCNQKMNSYLKEIADFCGIKKNLTTHVARHTFGTTVTLANNVPLQDVSVMLGHASTRMTQHYARVMNSSLKEAMNTVKERLAQ,not soluble
